Test results as given in patent publication US20230235039A1 (REGENECORE BIOTECH, published 2023).
Changes are numbered by the printed parent chain.

B1: humanized Fc-fused single-domain antibody 2B3-V2 (Fc fusion, not shown: a dimerising Fc or GST)
chain (part 1 of 2): QVQLVESGGGSVQAGGSLRLSCAASGNTFSFSTYCMGWFRQSPGKEREGSLATIYDASTAYAGSVKGRFTISRDNSKNILYLQMNNLRAEDTAVYYCAAARYCMFWSHPSYWGQGTQVTVSS
chain (part 2 of 2): HHHHHH
notes: Humanized variant of 2B3; vector RJK-V4-hFC
B2: Fc fusion protein of anti-IL-5 single-domain antibody 2B3 (Fc fusion, not shown: a dimerising Fc or GST)
chain (part 1 of 2): B1 chain (part 1 of 2) with A57G, R73V, S76A, R88K, A89P, V94M, R101K, H108D
chain (part 2 of 2): HHHHHH
notes: Vector RJK-V4-hFC; also called clone 2B3
B3: humanized Fc-fused single-domain antibody 1B3-V2 (Fc fusion, not shown: a dimerising Fc or GST)
chain (part 1 of 2): QVQLVESGGGSVQAGGSLRLSCAASGITASTSCMGWFRQSPGKEREGSLATIYDASTSYADSVKGRFTISRDNSKNILYLQMNNLRAEDTAVYYCAAARYCMFWSHPSYWGQGTQVTVSS
chain (part 2 of 2): HHHHHH
notes: Humanized variant of 1B3; vector RJK-V4-hFC
B4: Fc fusion protein of anti-IL-5 single-domain antibody 1B3 (Fc fusion, not shown: a dimerising Fc or GST)
chain (part 1 of 2): B3 chain (part 1 of 2) with A55G, R71V, S74A, R86K, A87P, V92M, R99K
chain (part 2 of 2): HHHHHH
notes: Vector RJK-V4-hFC; Embodiments name a human IgG4 Fc; also called clone 1B3
B5: single-domain antibody 1B3 (VHH, expressed in E. coli) (VHH)
VHH: B3 chain (part 1 of 2) with A55G, R71V, S74A, R86K, A87P, V92M, R99K
notes: pMECS-VHH expressed in E. coli HB2151, purified on Ni-column; not shown: C-terminal tags from vector pMECS (HA tag, and the His tag implied by Ni-column purification)
B6: single-domain antibody 1B8 (VHH, expressed in E. coli) (VHH)
VHH: B3 chain (part 1 of 2) with A55G, R66Q, R71V, S74A, R86K, A87P, V92M, R99K
notes: as for B5

molecular target: T1, human recombinant IL-5 protein with a histidine tag at carboxyl terminal (human, UniProt P05113 20-134); test: BLI (Octet 96), binding molecule on sensor, IL-5 antigen 200 nM and 2-fold dilutions
T1 construct: range 20-134; Expressed in 293F cells; also called hrIL-5-cHis; human IL-5 protein; not shown: histidine tag at carboxyl terminal
Procedure: Formulation of SD buffer: A proper amount of bovine serum albumin and Tween 20 were dissolved in 1×PBS (pH 7.4), so that the mass (or volume) fractions of bovine serum albumin and Tween 20 were 0.1% and 0.02% respectively. The IL-5 binding molecule was formulated in the SD buffer to a concentration of 10 μg/mL. Formulation of antigen working solution: the antigen was formulated in the SD buffer to 200 nM, and then diluted by a 2-fold gradient in a total of 5 concentration gradients. In addition, a blank control of SD buffer was also provided. A proper amount of 0.1M glycine stock solution was diluted by 10-fold in deionized water and mixed uniformly, to obtain a regeneration solution. Octet 96 and the Data Acquisition software in its supporting computer were run. The bottom and side of the acquisition probe were cleaned using a lens tissue with a proper amount of 75% ethanol. The instrument was pre-warmed for 15 min or more. Sensor pre-wetting: sensor was soaked in the SD buffer for 10 min or more before the assay. Then, the machine procedure was set according to baseline→antibody→baseline→binding antigen→dissociating antigen→regenerating sensor for assay operation.

Question: Which Kd does the source give for B1 here?
Answer: The Kd was 2.06 nM.

Question: What about the koff of the same binder?
Answer: The koff was 0.000406 s⁻¹.

Question: What about the kon of the same binder?
Answer: Its kon is 197000 M⁻¹ s⁻¹.

Question: How did the Kd turn out when B2 was run?
Answer: The Kd was 1.6 nM.

Question: What about the koff of the same binder?
Answer: Its koff is 0.000295 s⁻¹.

Question: What about the kon of the same binder?
Answer: Its kon is 184000 M⁻¹ s⁻¹.

Question: Which Kd does the source give for B3 here?
Answer: Its Kd is 1.02 nM.

Question: What about the koff of the same binder?
Answer: Its koff is 0.000184 s⁻¹.

Question: And the kon?
Answer: Its kon is 180000 M⁻¹ s⁻¹.

Question: With B4 as the binder, how does the Kd read?
Answer: Its Kd is 0.88 nM.

Question: And the koff?
Answer: Its koff is 0.000132 s⁻¹.

Question: And the kon?
Answer: Its kon is 149000 M⁻¹ s⁻¹.

molecular target: T1, human recombinant IL-5 protein with a …; test: ELISA, IL-5 protein coated on the plate, VHH titrated, anti-HA tag HRP secondary antibody, OD450
Procedure: 50 μL of 1 μg/mL IL-5 protein was coated on an ELISA plate at 4° C. overnight. The plate was washed. 200 μL of 5% milk was added for blocking at 37° C. for 1 h. The IL-5 protein-specific single-domain antibody (VHH) obtained in Example 1 was diluted to 2 μg/mL, and then diluted by a 5-fold gradient, in a total of 8 concentration gradients. The plate was washed. 50 μL of antibody was added in duplicate wells, and then incubated at 37° C. for 1 h. The plate was washed. 50 μL of mouse anti-HA tag HRP secondary antibody was added, and then incubated at 37° C. for 30 min. The plate was washed (for multiple times). 50 μL of TMB that had been restored to room temperature was added to react at room temperature in the dark for 15 min. 50 µL of stopping solution (1N HCl) was added. The resultant was measured using a microplate reader and then recorded. The curve was plotted.

Question: For B5, which “EC50 (read off the curve)” value is on record?
Answer: Its value is roughly 6 nM.

Question: For B6, which “EC50 (read off the curve)” value is on record?
Answer: The value was roughly 4 nM.
